# Measurements from IntAct's records for PubMed 10921873.
# B1: Coatomer subunit alpha (Saccharomyces cerevisiae), P53622 (parent)
# chain: MKMLTKFESKSTRAKGIAFHPSRPWVLVALFSSTIQLWDYRMGTLLHRFEDHEGPVRGLDFHPTQPIFVSAGDDYTIKVWSLDTNKCLYTLTGHLDYVRTVFFHRELPWIISASDDQTIRIWNWQNRKEIACLTGHNHFVMCAQFHPTDDLIVSASLDETIRIWDISGLRKRHSAPGTSSFEEQMSAQQNLLDGSLGDCVVKFILEGHTRGVNWASFHPTLPLIVSGSDDRQVKLWRMSATKAWEVDTCRGHTNNVDSVIFHPHQNLIISVGEDKTLRVWDLDKRTPVKQFKRENDRFWLIAAHPHINLFGAAHDSGIMVFKLDRERPCSFIHQNQLFFVNAEKQIQSFNFQKRVASLPYASLKGIGQPWDAFRSISYNPSQHSVLVNEANGKFALVILPKQPVGAVEPTSVTQDTGNFATFVGRNRFVVYNKNTESVEVRSLENKVTRNIKVEETVRTIVAAGPGSVLVIHPREVILYDVQQGKKVSQLAVKNVKYVSWSLDGQYVALMSKHTITLATKKLELINSMHETIRIKSAAWDETGVLIYSTLNHIRYSLLNGDRGIIKTLEKTLYITKVQGKLVYCLNREGEIEILTIDPTEYRFKKALVNKNFPEVLRLIKDSNLVGQNIISYLQKSGYPEIALQFVQDPHIRFDLALEYGNLDVALDEAKKLNDSSTWERLIQEALAQGNASLAEMIYQTQHSFDKLSFLYLVTGDVNKLSKMQNIAQTREDFGSMLLNTFYNNSTKERSSIFAEGGSLPLAYAVAKANGDEAAASAFLEQAEVDEQDVTLPDQMDASNFVQRPVISKPLEKWPLKEAELSYFEKAVLGQIDDLTIDDETPAVNTTQEQEEPLGEENFNDEDIGEDEGAWDLGDEDLDVGEELPEEVEQGEITSPAQEVETAIWIKNSKLPAVLVAAGAFDAAVQALSKQVGVVKLEPLKKYFTNIYEGCRTYIPSTPCELPAQLGYVRAYDDTVSEDQILPYVPGLDVVNEKMNEGYKNFKLNKPDIAIECFREAIYRITLLMVDDAEDEKLAHKILETAREYILGLSIELERRSLKEGNTVRMLELAAYFTKAKLSPIHRTNALQVAMSQHFKHKNFLQASYFAGEFLKIISSGPRAEQARKIKNKADSMASDAIPIDFDPYAKFDICAATYKPIYEDTPSVSDPLTGSKYVITEKDKIDRIAMISKIGAPASGLRIRV
# partner: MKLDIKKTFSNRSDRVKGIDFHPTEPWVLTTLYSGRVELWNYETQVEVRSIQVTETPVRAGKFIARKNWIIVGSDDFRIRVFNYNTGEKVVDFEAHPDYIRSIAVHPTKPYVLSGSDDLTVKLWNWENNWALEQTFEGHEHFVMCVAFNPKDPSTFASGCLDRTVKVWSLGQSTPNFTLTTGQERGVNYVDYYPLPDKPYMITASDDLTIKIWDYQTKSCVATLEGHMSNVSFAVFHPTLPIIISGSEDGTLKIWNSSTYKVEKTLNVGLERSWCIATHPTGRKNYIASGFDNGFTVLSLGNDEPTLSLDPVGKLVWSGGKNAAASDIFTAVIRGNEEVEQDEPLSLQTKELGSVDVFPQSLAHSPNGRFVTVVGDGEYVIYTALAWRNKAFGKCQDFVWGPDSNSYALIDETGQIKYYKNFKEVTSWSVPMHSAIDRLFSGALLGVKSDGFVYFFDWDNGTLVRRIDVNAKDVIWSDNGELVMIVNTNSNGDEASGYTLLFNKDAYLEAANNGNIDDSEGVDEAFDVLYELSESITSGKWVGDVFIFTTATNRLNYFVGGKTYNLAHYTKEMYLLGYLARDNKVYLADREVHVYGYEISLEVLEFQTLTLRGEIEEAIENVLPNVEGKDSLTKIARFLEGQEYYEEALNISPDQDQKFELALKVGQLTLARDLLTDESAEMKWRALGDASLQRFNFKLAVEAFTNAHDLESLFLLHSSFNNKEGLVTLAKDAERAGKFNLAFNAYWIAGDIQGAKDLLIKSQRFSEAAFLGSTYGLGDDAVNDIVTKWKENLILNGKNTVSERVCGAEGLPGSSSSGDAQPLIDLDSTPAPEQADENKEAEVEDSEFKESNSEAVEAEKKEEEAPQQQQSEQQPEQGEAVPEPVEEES
# Variants of: B1
# Settings: with copb2_yeast SEC27, P41811
row,effect of a mutation on the interaction,Variant
1,decreasing interaction,S1188F
